Reference: publication PMC10120734

Biological target: free UbcH8 (Ube2L6), GST tag removed (human)
Assay: SAXS

With “free UbcH8 (Ube2L6), GST tag removed (enzyme)” the stoichiometry N was 2.
